From the DeepSol protein solubility set

Assay: soluble on expression in E. coli; label from the status in PepcDB or PDB records
With “GPGSMPVEREVITLAFGNYSSLVAAQWANGTSHYDAHHSTLYSECRSADVLGGGSSGNGRVRVPRLLLLDAPYASAFDDIDVWARKYKDDAKIGEEGDAAYNPSEASPSPVHRGDATEEKDHLFASVVKAVQRHVFEQHGLDDDDSHGGNDDAGGADDAQNDDGEDADAHLLDEDEEDDVSKNAGRRGSATIPHSRAQRQARLKRKLFDEHNTTIPWWQYITTGLGPNSVTSVKPLQHVDAAGDLPALHSFGYGLAYLRDGGRSSEVVDLNDALRRNLEAADQLQGIQCFTDGDGLFGGAAANVLEQLWEDAGPKTPVVQACSFARLPALVADPAYRAEVAFRERRMDEVALNQLLATLHLSRHTSAVYIPVPLSDWDVLFKGAATAASPTEAPPWLQDERATAQLLAAVIDTALYGLRDGSRASGVSSQGPQWYMDEWCRVVRPAPSLRVAAAMGALPQSVSASSELWEFLQANPLLPDAPQLDERMVRANDSAEDDASSGQARQQAKFFPLTHTMSTYSTAHTAGQVLGHVASLRGAGCLPATVYPAREAMLRYALPLRTSTYLPLVTEVSYPISDTFPTELLFADPAAMAKVPGGASGSGGSEGITSLRRVLQSVDVGAHVLSTYATAPMLHDISTKAQAALRNKMDRYCDAYVMEKDDWREALDEGLALFDDYNHAPLSDAQDGGGSDGDDY” the “soluble on expression in E. coli” value was “not soluble”. With “GPGSMPVPSYWRMACRSYQFTICATSYLLRWRAPAVTQGSGALVKLPHLVRGARLQRGLLVTDAMIMKLGLVDDFIDEMKKQGTELAIYKDVLPNPTIDMVEEASVLYRKNRCDYLVAVGGGSVMDCAKLIGVRQARPRTPLPYMRGLLRVLWPLPPLIAVPTTAGTGSECTIAAVVSDPAKKDKLVVMDPFLTPSHCVLDPALTLTLPKFVTATAGMDALTHVVEAYTNVFHYRTVDKAALRAMELLAKYLPCAYKDGSNLEAREKMLHASYLAGLSFTRAGVGNVHAAAHAVGGLYNAPHGYVNAVILPHVLDMYGSAAHKSLARLAEAANIVGANDAEKAVNFISWVREMNAQMQIPTTLGAGDSRWAPQEEDIPFLVKHAVTEANPFYAVPVIFGEEEMTELFRRVM” the “soluble on expression in E. coli” value was “not soluble”. With “GPGSMRNYNNFNRVWKAPRRPFEKERLDREMKLCGQYGLRCKREIWRVNMTLSKMRRTARLLLTLPENHPRRLLEGSAIMRRCHEYGFLDEEKDKLDYVLSLTVPDILERRLQTIVFKAGLAKSVHHARVLIQQRHIAVAKQIVTIPSFIVRVSSERHIAFADASPFGNGRAGRVKRVRAKAAKRHAGGGDDDE” the “soluble on expression in E. coli” value was “not soluble”. In the case of “GPGSMRVDVEAVFEKIRPALEVAEVGAWSKTDITTFMSLVSGFCDIQRQQLRARRGKRRDGHDCEQNVDKEGGCEDGCGVRGEDGDKEDEASLEADSVVVLEIRRSLTKLRHYLQKRIPYGSISEPVVPPAPTSPQEGENSCGGRGAYKALQSSKPVEPPVCAVDAFLYLEEDIDALADQGHISREYCRSCGSVDIGLCQFITHSFSLEQLIFLSCFLLPSFGDTSYCLTSDNVWRPRHKNCHTVAAAFSCEHVVEVGSRLGIVPMSCYFASEQQRLLNTRRVTAIELDKELVALQQEVFQKFARGPTAAHLNLVHSDCFEGEGLEALRSADIIILHNIFEYFTASAEEHLRSWKRLRAAVVRSGQLLVCCPPLQETLAAFSEDCVRKVFINEQDKVDFVHVHQSNSNAGRISRKRCRQPPQEHSFTLDQWWRSWVKEIDVEHIRRSFLTAQRFCEEDHPCDSSYGDADDELVKELKDMRVYMVQ”, the “soluble on expression in E. coli” value is reported as “not soluble”. In the case of “GPGSMSALWAQVRQTVESEWDKTIVPAISAYIEVPNQSPQFDPEWATNGLQEKAFGILIDWMNAQNVQGLTYDYITADGRTPFLLVEIAGTEPTNNTVLMYGHMDKQPPLRPWAEGLDPHKAVVRDGKLYGRGGADDGYALFAAVTAISSLQRHGIPHGRVVITIEAGEESGSPDLDYYMERCKERIGKVDLMVCLDSGSMNYSQVWLTTSLRGVAIGELTVQTLTESMHSGVAGGVVPDTFRITRELLSRIEDCKTGEVTIPEAHCEIPPNAVKAAEAMKTVPFKEQFAMAAGVATVPGDNVELAIQNFWKPSLTVTGANLPDPQIAGNVIRTHTTVKLSMRLPPLVKAEAALQAMKRILEADPPYGAKVAFKGVGAGNGCAAPELKPWLQEVLHEGSTEAFGNTYACQGMGGAIPFIGMLIDMYPEAQFVVTGLLGPQSNAHGPNEFLHIPYAKGLTYSIARVVAAHLHNTPK”, the “soluble on expression in E. coli” value is reported as “soluble”. In the case of “GPGSMSDDTRYMYPARKAHAMDLGSSLNPEGDQKQTWGSVASVADAMSPTAEIKPSAPQVTHFGTGLGMQSSTGDPTLQEADSDGDKTEAVNEFDLAAYSKEDLTQTLHKRIMSRMFSAFDVTQVGYLDINKLKELCVYVGRNMSQEASEKMFDELKGIDGHITFDVFWNWWTTYPDTKMTKDTFSLVSADFSVPYHQQQLKIKDEGEIFTPSYRVKYYFKDMETGLRRRVSPWHDVPLYVRDPVRTKPENIRANRYNFICEIPKWTRAKFEIATGEPFNPIKQDIKNGVPRFYKHGDMMWNYGAFPQTWESTEVIFEDGVSGDNDPIDGVEIGMRQMRVGEIHPVRILGVLGMIDDGQMDWKVICMSVNDPVARFIKDIDDIPKFLPGCLDALREWFRVYKICQGGVENKFAFNGEYKDKTYAMKVVDESHYMWENLRKIKKKEEV”, the “soluble on expression in E. coli” value is reported as “soluble”. With “GPGSMSGAGNLRSNRRREMDYMRLCNSTRKVYPSDTVAEFWVEFKGPEGTPYEDGTWMLHVQLPSDYPFKSPSIGFCNRILHPNVDERSGSVCLDVINQTWTPMYQLENIFDVFLPQLLRYPNPSDPLNVQAAHLLHADRVGFDALLREHVSTHATPQKALESIPEAYRPHDNTHEEEPDEANAKDTASDGPVNAGHSKGLTDSSVTPTEDHRVMHDDIAIDGDEDVEAEYEPEEIDL” the “soluble on expression in E. coli” value was “soluble”. For “GPGSMSHSALAYAACPMCTRVVHMGQMLHHILSTHKEQDPAYWMRLCNARLALYERVTGAPLEGTETMRDACLAQATAAVAEAADSEAMVPGGLSLSTPLSTHDALRPFLPTVSETGTYTCNWCALRSVAFSSRDAFLLHVAKDHPKLDFDVVESLVPQPLTVSSRAARNEGTGTPAPRAPAAESDVTVSDSWTRQQRGGAGCVGAASNSHAAEGFDVAYPVRRMPGVRTVQDTNVVTVKPEVHQLGTSVGRVGRNAFDPAPISTGGRRSRAAVSASSTASATAVANDLHFDKDCFPCELCFRVFVSELNLLQHLESKHTNPTTLASVSDASVERAAPPGTASASSTAAASPSSVEVFVVCDRCTDRKKVFRSSSALFSHIRFRHPAEDAAYETERMIEEQRQSRVFQCPHCRYRHPDMTRLDTHMRDAHGVVGCAGEKTIRGGRVVSGTAQPHGSAELKTAQPSLFSALPPVTVRTRFWCSVCEKGFANASALYAHTESKHTTIASLYPCPACKREFRDVPSLESHVQLCHKNLSLKDMGLQSSVECPDCLRHFLNYESLHDHAVRHHGKSAIAPVRSFVTPVSASTAGEGVGVAAAVPVPGTSTDASGSTTSPLAVAAPPKPRKVTRRKKEPSTAATES”, the “soluble on expression in E. coli” value was “not soluble”. For “GPGSMSRSKEPPLPEELRTRLGQMDGCATAESWESVGNECFSHGCHLSAIRCYTKALEKGSDTANLRSSRSAAYMKSSMFAGPSLALKDAERAAELEPGRCEAHLRVGDAQLARKKYAEAKAAYQKAIELDGSCTAATHALRIVERELFLRSLDEQKKFSPVTEKPSGENTGTTSTGSNAEGPLNMEEEIKKRIQLWAEDTTVREDRTAMRAFNARLDEADRQAGTKYKSELLLKFRGKMAAQEPFRRMVEERRDQEMRMGEGIDYRNADSYRAILTKGTDGVGLGISTDAYKSYKYESKMW”, the “soluble on expression in E. coli” value was “not soluble”. With “GPGSMSVLVKGWGRGTCKINHIRDDDISSSESEGDDANVAVPLEELNVGTQHMITEEMRFRLRRKEKLSVQDDELGRLREAMRRQVFASGLLQPGQSAGVAPRRAEIIFSCAVEIQSSGLMEEAPTASPRVGDTSAWLKQLRKFILDRVPFQRSVRVMVPRTWLARAQETDVV” the “soluble on expression in E. coli” value was “not soluble”. For “GPGSMWALTCRPIQNTEALQLMERYKAHNALQSNQWLLPRHLACFAVRPLYPAQLVLPTSSVIRLPLSAVPFSSLPLSRKREVFGLYPPPCTPPGSCSLLECSGAAMRWRPASLSECFDAAFVRSDSPSSHQHLLCATDCAGSVTVAEEVTVFNAQETNNPFLVDADLVHRNLLTKEAYEHSIGSSLTTIAAQFRYTSFEWVEATAAAAVGLRVRSSAAPHLVNCVDMLRVVHISQLPYTRQQELVAEIPRMTLIKSMTISYIFYHTRWRHHKSMELMRPLLHSNIPCCDTPQAQALQPLLWIAVDLDMEFRGPVMECARHSRTQFYNSQQLEVDTCAVPSRS”, the “soluble on expression in E. coli” value was “soluble”. In the case of “GPGSMWVEAYRAGCAEVSADVREDVSSSGATGELIVRGNTFDNFKNRVTDTDVQAILAALRVCPGMSALYLPYNNITSEGGVLLGKALGHQLDSIITLDVQYNSLGAEAGVAIAQGLQRNDSLCHVTLAGNPLGGCCGAALGEALRQNMNLAVLDLFNTDLGMEALVHICRSLEGNKGLSSLNIGRPLLHGVDELESVVNHLSIALQRNSTLEELHMAYFGLVDDCLQTLVLALCGSAVTTLCIKGNKVSQDAGQLLARLLDRRQDFRNLDVSCNRLRDAGAAALAKGVAHHPQLESLGLESCTISERGLVVLVESLKSCATVRRLTLWGNDVTPAVASSLTATFCDLRELDYIDVGVMEQDGQLVAYRA”, the “soluble on expression in E. coli” value is reported as “not soluble”. For “GPGSMYKLPIEAQFNLIEEEFAAIEASTMNPRLYNFTTSNANPTKNRYINVLANEETIFPPTSLTSAPPTTGGSRLSTSGSPPSMASAPSPMKSLTGRAQKIWGVAGQRLFGTRRGGTLPRDVEGNEKFTTGCVTKKYPQWYINANVVDTSVEPVFVASQAPVQECIDDFLAVIYSCEVTLVLMLTELEEAGFVKADRYWPEDSAPADRIESFGSMCVYKDEQDPYTCDAAHELVRRSFYIRPSAASQARAHKIVMYQYVGWPDRGVPDSTESFEELLKIIQGYVMASPAPRVPAAGPESAAHSSIATNSGGDGSTSNTGSGEGSGKLTPPVFVHCSAGIGRTGTLIGAYTAVKLTEAGLLTNTSIRRIVTDMRKARFGMVQRVEQYMFLYMIVLQHMGVDARKFSARMQPRADLYNMRWMEARQKALLGARAAKR”, the “soluble on expression in E. coli” value was “not soluble”. For “GPGSMYSYNNIIEKNEPCKKDVIENLQLSLSPTGAVRQFRVDERVDVVVVEGFLSNDECDQLIAACEKVGYTFWRQKDPNAEGEEAGCCGEAEARAFRVVDTIEANFPTLSQVLSSRIEKVVKLDPKTFSPSMEGAEELFARDLEGTWVPQQLAQNLLFARYGAGGHFSPHIDGSTIVDINTRSLYTLLIYLNDCEAGGETVLFDGEQAEVLKRDAESGKYIGRRENRIGAVKPTKGTAAFFYYDVLHEGSPVGEGHSKYIIRGDFLYRRNPPILTAENDMKAFELYEKARVAESNGDVFAACEMFQRVRKLSKGVAELYQL”, the “soluble on expression in E. coli” value was “soluble”. In the case of “GPGSVPPKKPTEVPKLVRINTNEKGITNVQLARAPVNSMSLELFQELNQWMLWLGCNEETKAVIISSAIPTVFSAGLEFSEVHNPKPDRIAVFWQSFQEMWRILDTFPKPIIAAITGNSPAAGCIIAMGCDYRVMARGPKGNTNNNRLYRIGLNETKLGLVPPPWTVSAYAYLLGSRQAEEMLQLGETPVADDARNLGLIDEVAADEERAIEVAYQQAERFLSVPQEARRVSRDMARCEYLRLLATEDDRNYDTEFFTQYMLRPEVQKNLESYLERLKSRSRK”, the “soluble on expression in E. coli” value is reported as “not soluble”. For “GPGSWIVSRGLNYSDPMNSVVARWVQHSRVRRLTTPISCFGLFIFTATCMQLPYDFRLLREASAGIDRQTALLKKSMDERYLAYREGKIAKEQLEAKEAEAFAKSMKVQ”, the “soluble on expression in E. coli” value was “soluble”. For “GPLGSAGSSWQCDTCLLQNKVTDNKCIACQAAKLPLKETAKQTGIGTPSKSDKPASTSGTGFGDKFKPAIGTWDCDTCLVQNKPEAVKCVACETPKPG”, the “soluble on expression in E. coli” value was “soluble”.
